The test system of assay [1] is captor antibody against the N-terminal PTH fragment (anti-hPTH(1-34)). As to the kind of experiment: Spiking experiments with hPTH(1-37) fragments, Nichols IRMA intact PTH test. The format is binding, goat. Particulars: 1000 pM hPTH(1-37) added. The method, then:
The Nichols Intact PTH Assay (Nichols Institute, San Juan Capistrano, Calif., U.S.A) is a double binding immunoradiometry assay (IRMA) with two polyclonal goat antibodies. […] The second detection antibody, marked with ^125Iodine, recognizes an epitope in the N-terminal section of the PTH (anti-hPTH(1-34)). The sample was incubated at the same time with the antibody coated beads and the ^125Iodine marked detection antibody overnight (12±2 h) at room temperature. After the incubation, the beads were washed and the radioactivity adhering to the solid phase measured in a gamma counter (LKB1277 Gamma Master from Perkin-Elmer). The dose measurement curve (MultiCalc Software) between bound radioactivity and concentration in the sample was determined strictly in accordance with the manufacturer's instructions via a standard measured at the same time. […]
The standard sample and the plasma pools where in each case treated with three different concentrations of hPTH(1-37) fragments in five different oxidation and state forms and then the recovered PTH contents determined. […]
There were produced from each fragment solution three initial concentrations (1000 nM, 100 nM and 10 nM). A further dilution of the fragment solutions 1:100 in the standard and in the pool plasma yielded final concentrations of […] in the sample to be analyzed. […]

The subject of assay [2] is captor antibody used in the Roche Elecsys 2010 PTH test. As to the kind of experiment: Oxidation and reduction of plasma samples, measured with Roche Elecsys 2010 PTH test. The method, then:
The Roche Elecsys™ PTH assay is an electrochemiluminescence immunoassay (ECLIA) on the fully automatic immunoanalyzer Elecsys ^R2010. The epitope recognized by the biotinylated captor antibody contains the PTH amino acids 26 to 32 and the monoclonal ruthenium detection antibody recognizes, in accordance with the information from the manufacturer, an epitope in the region of the PTH amino acids 55 to 64. Sample and antibodies were incubated together for 9 minutes at 37° C., Streptavidin coated paramagnetic beads introduced to the incubation mixture, and finally incubated for further 9 minutes. After magnetic separation of the bonded conjugates from the free conjugates on an electrode surface the luminescence was determined and the end PTH concentration determined via a recalibrated master curve. The interassay variance in the lower and upper normal region was less than 7% CV and in the high concentration region 5% CV.
(§1) 30 plasma samples of dialysis patients and ESRD patients (ESRD=end stage renal disease) were selected at random and oxidized with hydrogen peroxide (30%; end concentration: 1.5 Mol/L) or reduced with sodium boron hydride (NaBH4, aqueous solution of 100 nMol/L). All samples, treated and untreated, where measured at the same time with the Roche Elecsys™2010 and the Nichols IRMA test.
(§2) The oxidation was effected with 30% hydrogen peroxide solution. The hydrogen peroxide concentration in the incubation preparation was at 17% of the 30% solution. All samples were incubated for 45 minutes at 37° C., then also cooled down to −70° C., lyophilized and stored at −20° C. until the quantitative PTH determination.
Of 20 samples an aliquot of each in the ratio 1:1 (v/v) was treated and reduced with a 100 nMol NaBH4 solution. Further, of 10 oxidized samples in each case an aliquot was reverse reduced by the addition of a 100 nMol NaBH4 solution in the ratio 1:1. The samples were incubated for 45 minutes at room temperature and the reaction stopped on dry ice. After the lyophilization the samples were deep frozen at −20° C. until determination. The diagrams of FIGS. 5 to 11 show the results.

Assay [3] has as its system polyclonal antibodies employed in the Nichols test. The assay is described as follows: Oxidation and reduction of plasma samples, measured with Nichols IRMA. The arrangement: species or system goat. Particulars: H2O2 oxidation. The method, then: The Nichols Intact PTH Assay (Nichols Institute, San Juan Capistrano, Calif., U.S.A) is a double binding immunoradiometry assay (IRMA) with two polyclonal goat antibodies. The captor antibody, immobilized in plastic beads, binds only in the middle or C-terminal section of the hPTH (anti-hPTH(39-89)). The second detection antibody, marked with ^125Iodine, recognizes an epitope in the N-terminal section of the PTH (anti-hPTH(1-34)). The sample was incubated at the same time with the antibody coated beads and the ^125Iodine marked detection antibody overnight (12±2 h) at room temperature. After the incubation, the beads were washed and the radioactivity adhering to the solid phase measured in a gamma counter (LKB1277 Gamma Master from Perkin-Elmer). The dose measurement curve (MultiCalc Software) between bound radioactivity and concentration in the sample was determined strictly in accordance with the manufacturer's instructions via a standard measured at the same time. The interassay variance in the normal and increased region was less than 10% CV.
as §1, §2
Of 20 samples an aliquot of each in the ratio 1:1 (v/v) was treated and reduced with a 100 nMol NaBH4 solution. Further, of 10 oxidized samples in each case an aliquot was reverse reduced by the addition of a 100 nMol NaBH4 solution in the ratio 1:1. […]

The mark [4] stands for this setting: H2O2 oxidation, individual samples.

As to “hPTH(1-37): native hPTH(1-37) fragment of human parathyroid hormone, from IPF or Immundiagnostik AG (SVSEIQLMHNLGKHLNSMERVEWLRKKLQDVHNFVAL; Parathyroid hormone; UniProt P01270 32-68, looked up, fragment)”, the “signal reduction to % of the native measured sample” value in assay [1] stood at 50%.

B1: PTH: parathyroid hormone, single polypeptide chain of 84 amino acids, endogenous in plasma samples of dialysis patients (protein, UniProt P01270 32-115, looked up)
Parathyroid hormone: SVSEIQLMHNLGKHLNSMERVEWLRKKLQDVHNFVALGAPLAPRDAGSQRPRKKEDNVLVESHEKSLGEADKADVNVLTKAKSQ
modifications: Parathyroid hormone
notes: parathyroid hormone, single polypeptide chain of 84 amino acids, endogenous in plasma samples of dialysis patients
As for B1, the “measurement value after oxidation, average, of the initial value” in assay [2] (H2O2 oxidation, 45 minutes at 37° C., plasma of dialysis and ESRD patients) worked out at 29%. Moreover, in assay [2] (setting [4]), the “highest remaining measurement signal after oxidation, % of initial value” came to 53% and the “lowest remaining measurement signal after oxidation, % of initial value” was determined as 10%. Further, in assay [2] (H2O2 then NaBH4), the “measurement value after oxidation and reverse reduction, of the initial value” is “ca. 50%”. Also, the “concentration after oxidation, average, of the initial value” in assay [3] amounted to 76%. In assay [3] (individual samples), the “highest remaining concentration after oxidation, % of initial value (smallest reduction)” value worked out at 98% and the “lowest remaining concentration after oxidation, % of initial value (largest reduction)” value was determined as 33%.

The record behind these values is patent US7790398B2, “Method for determining effective parathormone activity in a sample” (priority 2001, dated 2010).
